Measurements from PMC10786891, “Massively parallel profiling of RNA-targeting CRISPR-Cas13d”.

T1: EsCas13d, nuclease-dead (Eubacterium siraeum, UniProt B0MS50, R295A;H300A;R849A;H854A)
T1 sequence: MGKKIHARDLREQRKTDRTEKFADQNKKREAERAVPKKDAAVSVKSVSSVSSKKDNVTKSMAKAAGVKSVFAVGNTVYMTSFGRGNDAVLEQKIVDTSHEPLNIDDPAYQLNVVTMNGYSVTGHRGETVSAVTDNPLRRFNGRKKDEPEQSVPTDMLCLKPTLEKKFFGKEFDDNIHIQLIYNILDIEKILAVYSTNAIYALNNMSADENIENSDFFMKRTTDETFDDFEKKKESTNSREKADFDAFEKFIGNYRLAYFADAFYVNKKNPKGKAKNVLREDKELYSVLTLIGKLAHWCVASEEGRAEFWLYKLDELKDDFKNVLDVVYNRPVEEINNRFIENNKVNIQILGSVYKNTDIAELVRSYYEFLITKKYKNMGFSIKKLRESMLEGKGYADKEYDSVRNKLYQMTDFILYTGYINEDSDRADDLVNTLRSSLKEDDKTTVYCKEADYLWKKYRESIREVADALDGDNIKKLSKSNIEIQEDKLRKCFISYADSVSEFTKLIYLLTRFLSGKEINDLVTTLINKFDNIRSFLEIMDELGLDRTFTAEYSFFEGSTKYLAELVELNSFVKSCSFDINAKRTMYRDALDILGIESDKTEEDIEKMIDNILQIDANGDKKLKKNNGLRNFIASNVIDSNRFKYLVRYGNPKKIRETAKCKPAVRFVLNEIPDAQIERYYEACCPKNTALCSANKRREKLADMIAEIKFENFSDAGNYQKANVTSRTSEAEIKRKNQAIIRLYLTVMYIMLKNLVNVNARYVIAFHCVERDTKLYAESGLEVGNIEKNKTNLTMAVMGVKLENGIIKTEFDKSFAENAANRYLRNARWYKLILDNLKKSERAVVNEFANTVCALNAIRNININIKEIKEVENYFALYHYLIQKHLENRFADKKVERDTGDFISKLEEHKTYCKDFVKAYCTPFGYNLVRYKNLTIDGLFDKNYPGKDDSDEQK


Target: T1, EsCas13d, nuclease-dead
Assay: crRNA (strand 1, pre-loaded); Mg2+; 40 mM Tris-HCl pH 7.5, 150 mM NaCl, 6 mM MgCl2, 1 mM DTT, 0.1% Tween-20, 0.2 mg/ml BSA; 25 C; 10 min per concentration, then washed
Conditions: tags: His6-TwinStrep-SUMO cleaved; N-terminal SNAP kept (SNAP-Surface 488); label: 3' end held by stalled T7 RNA polymerase

Binder	Kd [nM]
target 1 U10C,U19C (mixed) RNA 1: CACCCGUGCAAAAAUGCAGGGGUCUAAAACUGAGCGGAUAACCUCUCUAUGG RNA 2: GGGAAUGGAUCCACAUCUACGAAUUCGUACCACAGAGAGGUCAUCCGCUCACCGAGAUCGGAAGAGCACACGU	70 ± 12
target 1 insU 3' of 21,insA 3' of 2 (mixed) RNA 1: CACCCGUGCAAAAAUGCAGGGGUCUAAAACUGAGCGGAUAACCUCUCUAUGG RNA 2: GGGAAUGGAUCCACAUCUACGAAUUCGUACCUAUAGAGAGGUUAUCCGCUCAACCGAGAUCGGAAGAGCACACGU	26.8 ± 2.8
target 1 C6A,C7G (mixed) RNA 1: CACCCGUGCAAAAAUGCAGGGGUCUAAAACUGAGCGGAUAACCUCUCUAUGG RNA 2: GGGAAUGGAUCCACAUCUACGAAUUCGUACCAUAGAGAGGUUAUGAGCUCACCGAGAUCGGAAGAGCACACGU	6.86 ± 0.18
target 3 insU 3' of 22,insC 3' of 8 (mixed) RNA 1: CACCCGUGCAAAAUUGCAGGGGUCUAAAACGACCUGAAUAUUUCAGAUCAAA RNA 2: GGGAAUGGAUCCACAUCUACGAAUUCGUUUUUUGAUCUGAAAUAUCUCAGGUCUGCAGAUCGGAAGAGCACACGU	106 ± 32
target 3 insA 3' of 16,insA 3' of 2 (mixed) RNA 1: CACCCGUGCAAAAUUGCAGGGGUCUAAAACGACCUGAAUAUUUCAGAUCAAA RNA 2: GGGAAUGGAUCCACAUCUACGAAUUCGUUUUUGAUCAUGAAAUAUUCAGGUACUGCAGAUCGGAAGAGCACACGU	84.5 ± 25.5
target 3 insU 3' of 22,insG 3' of 8 (mixed) RNA 1: CACCCGUGCAAAAUUGCAGGGGUCUAAAACGACCUGAAUAUUUCAGAUCAAA RNA 2: GGGAAUGGAUCCACAUCUACGAAUUCGUUUUUUGAUCUGAAAUAUGUCAGGUCUGCAGAUCGGAAGAGCACACGU	50.5 ± 11.5
target 3 G4C,U20C (mixed) RNA 1: CACCCGUGCAAAAUUGCAGGGGUCUAAAACGACCUGAAUAUUUCAGAUCAAA RNA 2: GGGAAUGGAUCCACAUCUACGAAUUCGUUUUCGAUCUGAAAUAUUCACGUCUGCAGAUCGGAAGAGCACACGU	57 ± 12
target 3 insA 3' of 19,insU 3' of 1 (mixed) RNA 1: CACCCGUGCAAAAUUGCAGGGGUCUAAAACGACCUGAAUAUUUCAGAUCAAA RNA 2: GGGAAUGGAUCCACAUCUACGAAUUCGUUUUUGAAUCUGAAAUAUUCAGGUCUUGCAGAUCGGAAGAGCACACGU	68 ± 21
target 3 G4U,U22A (mixed) RNA 1: CACCCGUGCAAAAUUGCAGGGGUCUAAAACGACCUGAAUAUUUCAGAUCAAA RNA 2: GGGAAUGGAUCCACAUCUACGAAUUCGUUAUUGAUCUGAAAUAUUCAUGUCUGCAGAUCGGAAGAGCACACGU	4.45 ± 0.435
target 3 insU 3' of 4,insA 3' of 2 (mixed) RNA 1: CACCCGUGCAAAAUUGCAGGGGUCUAAAACGACCUGAAUAUUUCAGAUCAAA RNA 2: GGGAAUGGAUCCACAUCUACGAAUUCGUUUUUGAUCUGAAAUAUUCAGUGUACUGCAGAUCGGAAGAGCACACGU	4.65 ± 0.75
target 3 insC 3' of 8,insU 3' of 4 (mixed) RNA 1: CACCCGUGCAAAAUUGCAGGGGUCUAAAACGACCUGAAUAUUUCAGAUCAAA RNA 2: GGGAAUGGAUCCACAUCUACGAAUUCGUUUUUGAUCUGAAAUAUCUCAGUGUCUGCAGAUCGGAAGAGCACACGU	105 ± 42
target 3 insA 3' of 7,insA 3' of 6 (mixed) RNA 1: CACCCGUGCAAAAUUGCAGGGGUCUAAAACGACCUGAAUAUUUCAGAUCAAA RNA 2: GGGAAUGGAUCCACAUCUACGAAUUCGUUUUUGAUCUGAAAUAUUACAAGGUCUGCAGAUCGGAAGAGCACACGU	23.7 ± 2.65
target 3 A11G (mixed) RNA 1: CACCCGUGCAAAAUUGCAGGGGUCUAAAACGACCUGAAUAUUUCAGAUCAAA RNA 2: GGGAAUGGAUCCACAUCUACGAAUUCGUUUUUGAUCUGAAGUAUUCAGGUCUGCAGAUCGGAAGAGCACACGU	57 ± 11.5
target 3 complement block 3-6 (mixed) RNA 1: CACCCGUGCAAAAUUGCAGGGGUCUAAAACGACCUGAAUAUUUCAGAUCAAA RNA 2: GGGAAUGGAUCCACAUCUACGAAUUCGUUUUUGAUCUGAAAUAUUGUCCUCUGCAGAUCGGAAGAGCACACGU	57 ± 6
target 3 C6A,U8A (mixed) RNA 1: CACCCGUGCAAAAUUGCAGGGGUCUAAAACGACCUGAAUAUUUCAGAUCAAA RNA 2: GGGAAUGGAUCCACAUCUACGAAUUCGUUUUUGAUCUGAAAUAAUAAGGUCUGCAGAUCGGAAGAGCACACGU	59 ± 8.5
target 3 insG 3' of 2 (mixed) RNA 1: CACCCGUGCAAAAUUGCAGGGGUCUAAAACGACCUGAAUAUUUCAGAUCAAA RNA 2: GGGAAUGGAUCCACAUCUACGAAUUCGUUUUUGAUCUGAAAUAUUCAGGUGCUGCAGAUCGGAAGAGCACACGU	37.1 ± 3.7
target 3 insA 3' of 3,insU 3' of 3 (mixed) RNA 1: CACCCGUGCAAAAUUGCAGGGGUCUAAAACGACCUGAAUAUUUCAGAUCAAA RNA 2: GGGAAUGGAUCCACAUCUACGAAUUCGUUUUUGAUCUGAAAUAUUCAGGAUUCUGCAGAUCGGAAGAGCACACGU	27.9 ± 2.9
target 3 insU 3' of 4,insA 3' of 3 (mixed) RNA 1: CACCCGUGCAAAAUUGCAGGGGUCUAAAACGACCUGAAUAUUUCAGAUCAAA RNA 2: GGGAAUGGAUCCACAUCUACGAAUUCGUUUUUGAUCUGAAAUAUUCAGUGAUCUGCAGAUCGGAAGAGCACACGU	17.8 ± 2.45
target 3 U7A,A9G (mixed) RNA 1: CACCCGUGCAAAAUUGCAGGGGUCUAAAACGACCUGAAUAUUUCAGAUCAAA RNA 2: GGGAAUGGAUCCACAUCUACGAAUUCGUUUUUGAUCUGAAAUGUACAGGUCUGCAGAUCGGAAGAGCACACGU	97 ± 17.5
target 3 A18G,U20A (mixed) RNA 1: CACCCGUGCAAAAUUGCAGGGGUCUAAAACGACCUGAAUAUUUCAGAUCAAA RNA 2: GGGAAUGGAUCCACAUCUACGAAUUCGUUUUAGGUCUGAAAUAUUCAGGUCUGCAGAUCGGAAGAGCACACGU	83.5 ± 36.5
target 3 insA 3' of 14,insA 3' of 6 (mixed) RNA 1: CACCCGUGCAAAAUUGCAGGGGUCUAAAACGACCUGAAUAUUUCAGAUCAAA RNA 2: GGGAAUGGAUCCACAUCUACGAAUUCGUUUUUGAUCUGAAAAUAUUCAAGGUCUGCAGAUCGGAAGAGCACACGU	90.5 ± 25
target 3 insA 3' of 8,insG 3' of 8 (mixed) RNA 1: CACCCGUGCAAAAUUGCAGGGGUCUAAAACGACCUGAAUAUUUCAGAUCAAA RNA 2: GGGAAUGGAUCCACAUCUACGAAUUCGUUUUUGAUCUGAAAUAUAGUCAGGUCUGCAGAUCGGAAGAGCACACGU	53.5 ± 8.5
target 3 complement block 6-8 (mixed) RNA 1: CACCCGUGCAAAAUUGCAGGGGUCUAAAACGACCUGAAUAUUUCAGAUCAAA RNA 2: GGGAAUGGAUCCACAUCUACGAAUUCGUUUUUGAUCUGAAAUAAAGAGGUCUGCAGAUCGGAAGAGCACACGU	102 ± 23.5
target 3 G4C,U22C (mixed) RNA 1: CACCCGUGCAAAAUUGCAGGGGUCUAAAACGACCUGAAUAUUUCAGAUCAAA RNA 2: GGGAAUGGAUCCACAUCUACGAAUUCGUUCUUGAUCUGAAAUAUUCACGUCUGCAGAUCGGAAGAGCACACGU	13 ± 2.15
target 3 insU 3' of 6,insA 3' of 4 (mixed) RNA 1: CACCCGUGCAAAAUUGCAGGGGUCUAAAACGACCUGAAUAUUUCAGAUCAAA RNA 2: GGGAAUGGAUCCACAUCUACGAAUUCGUUUUUGAUCUGAAAUAUUCUAGAGUCUGCAGAUCGGAAGAGCACACGU	19.4 ± 3.6
target 3 insA 3' of 21,insC 3' of 20 (mixed) RNA 1: CACCCGUGCAAAAUUGCAGGGGUCUAAAACGACCUGAAUAUUUCAGAUCAAA RNA 2: GGGAAUGGAUCCACAUCUACGAAUUCGUUUUAUCGAUCUGAAAUAUUCAGGUCUGCAGAUCGGAAGAGCACACGU	73.5 ± 20.5
target 3 A5G,U22A (mixed) RNA 1: CACCCGUGCAAAAUUGCAGGGGUCUAAAACGACCUGAAUAUUUCAGAUCAAA RNA 2: GGGAAUGGAUCCACAUCUACGAAUUCGUUAUUGAUCUGAAAUAUUCGGGUCUGCAGAUCGGAAGAGCACACGU	21.6 ± 2.85
target 3 del4,del6 (mixed) RNA 1: CACCCGUGCAAAAUUGCAGGGGUCUAAAACGACCUGAAUAUUUCAGAUCAAA RNA 2: GGGAAUGGAUCCACAUCUACGAAUUCGUUUUUGAUCUGAAAUAUUAGUCUGCAGAUCGGAAGAGCACACGU	19 ± 3.25
